Measured values published in patent US20050255113A1, “Methods and compositions for inhibiting polypeptide accumulation associated with neurological disorders” (New York State Department of Health and Abgenix, Inc., priority 1999, published 2005).

Key:
GST-HD-25Q, GST-HD-42Q = experiment: Affinity purification of sFv with GST-fusion antigens (glutathione-Sepharose, SDS-PAGE, immunoblot); type: binding; conditions: 3 μg sFv with 4 μg antigen, 1 hr room temperature; Coomassie and immunoblot
Protocol: About 3 ug of N-HD-C4 sFv was mixed with 4 ug of either GST-DRPLA-Q35 or GST-HD-Q25 or GST-HD-Q42 in PBS (200 μl final volume) and rocked for 1 h at RT. Twenty microliters of glutathione Sepharose 4B beads (50% slurry, pre-washed with PBS) was added and incubated for another 30 min at RT to capture the sFv/GST fusion protein complexes. The beads were harvested by centrifugation at 12,000×g for 10 sec and washed thrice with 1 ml PBS. The complexes were eluted with 10 μl of 50 mM Tris pH 8.0 containing 10 mM reduced glutathione for 10 min at RT. Tubes were then centrifuged at 12,000×g for 1 min and the supernatants containing the soluble complexes were transferred to new tubes, mixed with an equal volume of 2× SDS-sample buffer and heated at 95° C. before being loaded on SDS-PAGE.
About 3 μg of each clone were incubated in solution for 1 hour at room temperature with 4 ug of either GST-DRPLA-Q35, GST-HD-Q25 or GST-HD-Q42. Then, a 10 μl bed volume of glutathione-Sepharose 4B (Pharmacia) was added to each tube to precipitate the GST-fusion protein/sFv complexes. After 30 min incubation, tubes were centrifuged and the pellets washed 3 times with 1 ml PBS. The complexes were eluted from glutathione-Sepharose beads by addition of 10 mM reduced glutathione to the pellets.
After centrifugation, supernatants containing the eluted complexes were transferred to new tubes and mixed with an equal volume of 2× SDS-loading buffer. The samples were boiled and the proteins separated on a 12% SDS-PAGE. Protein bands were visualized by Coomassie blue staining, and/or transferred to nitrocellulose membranes in order to detect the sFv molecules by immunoblot.
The binding specificities of the selected sFv clones were tested by affinity binding to a full range of antigens, as follows: (a) using sample numbers that correspond to the experimental results in FIGS. 9 and 10, about 3 μg of α-Nt-HD-C4 sFv clone 1 (lanes 2-4) or α-Nt-HD-C4 sFv clone 2 (lanes 5-7) were mixed with 4 μg of the following antigens and incubated in solution for 1 hr at room temperature (lanes 2 and 5) GST-DRPLA-35Q, (lanes 3 and 6) GST-HD-25Q, (4 and 7) GST-HD-42Q; (b) a 10 μl bed volume of glutathione-Sepharose 4B (Pharmacia) was added to each tube to bind all GST-containing protein complexes; the beads were washed with 10 mM glutathione solution, which eluted the GST-antigen or the sFv-antigen complex, and these eluates were analyzed by SDS-PAGE. Protein bands were visualized by Coomassie blue staining (FIG. 9) and were also transferred to nitrocellulose membranes in order to detect the sFv molecules by immunoblot blot (FIG. 10).

[1] = system: model huntingtin polypeptide (HD-25Q-GFP, pHD-104Q-GFP, HD-Q104-myc, GFP-HD-Q104); experiment: Intrabody retargeting of model huntingtin polypeptide in co-transfected COS-7 cells (immunofluorescence); type: cell-based
Protocol: COS 7 cells were grown on cover glass in 6-well plates (10^5 cells/well) and co-transfected at a ratio of 3:1 (sFv to target) with plasmids containing either N-HD-C4 sFv or a negative control sFv (containing an HA tag and SV40 nuclear localization sequence (NLS)) and plasmids containing GFP-targeted fusion proteins using 5 μl SuperFect transfection reagent (QIAGEN). At 24 hours post-transfection, cells were prepared for immunofluorescence as follows: cells were fixed with 4% paraformaldehyde and permeabilized with 0.2% triton-X100. To prevent non-specific binding of secondary antibodies, cells were blocked with 10% normal goat serum in 3% BSA.
The assay is designed such that both the target antigen, i.e., the model huntingtin polypeptide, and the intrabody can be visualized. In particular, the huntingtin polypeptide is visualized by detecting fluorescence emitted by the GFP domain of the huntingtin-GFP fusion polypeptide and the intrabodies tested are visualized using a rhodamine-conjugated antibody that can specifically bind to the intrabody.
The model HD target polypeptide was fused to c-myc (EQKLISEEDL (SEQ ID NO: 45)) epitope tag (HD-Q104-myc). The intrabodies sequences were fused to a HA tag and a SV40 nuclear localization signal (sFv-HA-NLS), so that bound antigens should be retargeted to the cell nuclei. At 48 hours post-transfection, cells were fixed and permeabilized. The HD-Q104-myc proteins were detectable using anti-myc epitope antibodies (i.e., MAb 9E10 IgG), followed by FITC-labeled goat anti-mouse IgG. The sFv-HA-NLS intrabodies were detected by polyclonal rabbit anti-HA IgG followed by rhodamine-conjugated goat anti-rabbit IgG antibodies.
FIGS. 13A-F show stably transfected COS-7 cells expressing α-Nt-HD-C4 sFv-HA-NLS which were further transfected with plasmids encoding either the model altered huntingtin polypeptide with 104 glutamine repeats (FIGS. 13B, D, F) or the model altered DRPLA polypeptide with 81 glutamine repeats (FIGS. 13A, C, E). Both model altered polypeptides were fused to GFP (GFP-HD-Q104 and GFP-DRPLA-Q81, respectively).

COS-7 cells = experiment: Aggregation and cell death of model huntingtin-GFP fusion polypeptides expressed in COS-7 cells; type: cell-based, Primate
Excerpt: In order to determine the effects of intracellular polypeptide aggregation, cells expressing a polypeptide representing normal huntingtin polypeptide as compared to cells expressing a huntingtin polypeptide representing the polypeptide found in patients with Huntington's disease was examined. Primate cells (COS-7) were transfected with plasmid constructs encoding a model huntingtin-GFP fusion polypeptide representing the normal polypeptide or an altered huntingtin polypeptide associated with disease having 47, 72, or 104 glutamine residues. Within 24 h of transfection, a large number of the cells express the huntingtin polypeptide as indicated by the GFP tag fused to each of the test proteins. Observations were recorded at three time points (see Table 4).
Using fluorescence microscopy, it was observed that cells that express the huntingtin-GFP polypeptide with 104 glutamine residues (FIG. 3D) harbor large, brilliant aggregates. […] In cells expressing a model huntingtin polypeptide with fewer glutamine residues (72Q), extremely bright and more variable aggregates are seen, with slightly less cell death. And in cells expressing a model huntingtin polypeptide with 47 glutamine residues, the fluorescence intensity was less and more diffuse.

cerebellar slices = experiment: Aggregation of model huntingtin-GFP polypeptides in biolistically transfected cerebellar slices; type: cell-based, mice (P12 Balb); conditions: examined after 24 h
Protocol: Organotypic slice cultures are made from P12-P14 cerebellum, cerebral cortex, or striatum, using published methods with minor modifications (1)(14). The brain is dissected from a mouse and placed in a beaker of high magnesium (1.8 mM CaCl2 and 2.4 mM MgCl2) HEPES-buffered Hanks' saline (HBHS) at 4° C. The brain is then blocked and mounted next to a 2% agarose block on a 1-cm^2 piece of Plexiglas (0.3 cm thick) with SuperGlue®. Dental wax mounts the plastic onto the slicing-chamber tissue-holder. After being mounted, the tissue is placed in the slicing chamber of the vibratome. The bath of the vibratome contains cooled high magnesium HBHS at 4° C. Temperature is maintained by a peltier thermoelectric refrigeration system attached to the slicing chamber (FHC, Brunswick, Me.). Three or 400 μm thick sections were sliced from the tissues of interest. As each new slice was made it was placed into growth medium at 4° C. until the collection of slices was complete. Slices from one preparation were then placed in an enclosed filter unit, and incubated at 37° C. for 1 hour in high magnesium artificial cerebral spinal fluid ([…], 0.33 mM KCl, 0.12 mM NaH2PO4, 2.5 mM NaHCO3, 1 mM dextrose, 2.4 mM MgCl2, 1.8 mM CaCl2; all items from Sigma®, St. Louis, Mo.). Solutions were constantly gassed with 95% O2 and 5% CO2. […]

B1: α-Nt-HD-C4 sFv clone 1: subclone 1 of α-Nt-HD-C4 sFv expressed in bacteria and purified on Ni-NTA (protein)
scFv: QVQLQESGGGLVQPGGSLRLSCAASGFTFSSYSMSWVRQAPGKGLEWVAVISYDGSNKYYADSVKGRFTISRDNSKNTLYLQMNSLRAEDTAVYYCARDRYFDLWGRGTLVTVSSGGGGSGGGGSGGGGSQSALTQPASVSGSPGQSITISCTGTSSDIGAYNYVSWYQQYPGKAPKLLIYDVSNRPSGISNRFSGSKSGDTASLTISGLQAEDEADYYCSSFANSGPLFGGGTKVTVL
modifications: left off: small tags and cut ends
notes: subclone 1 of α-Nt-HD-C4 sFv expressed in bacteria and purified on Ni-NTA
sFv co-purified with antigens containing the Nt-HD sequence (GST-HD-25Q, GST-HD-42Q): binding only the HD flanking peptide

B2: α-Nt-HD-C4 sFv clone 2: subclone 2 of α-Nt-HD-C4 sFv expressed in bacteria and purified on Ni-NTA (protein)
scFv: B1 scFv
modifications: left off: small tags and cut ends
notes: subclone 2 of α-Nt-HD-C4 sFv expressed in bacteria and purified on Ni-NTA
sFv co-purified with antigens containing the Nt-HD sequence (GST-HD-25Q, GST-HD-42Q): binding only the HD flanking peptide

B3: α-Nt-HD-C4 sFv-NLS: huntingtin-specific C4 sFv intrabody fused to HA tag and SV40 nuclear localization signal (protein)
scFv: QVQLQESGGGLVQPGGSLRLSCAASGFTFSSYSMSWVRQAPGKGLEWVAVISYDGSNKYYADSVKGRFTISRDNSKNTLYLQMNSLRAEDTAVYYCARDRYFDLWGRGTLVTVSSGGGGSGGGGSGGGGSQSALTQPASVSGSPGQSITISCTGTSSDIGAYNYVSWYQQYPGKAPKLLIYDVSNRPSGISNRFSGSKSGDTASLTISGLQAEDEADYYCSSFANSGPLFGGGTKVTVLYPYDVPDYATPPLLLRLV
relocation of HD-Q104-myc ([1]; COS-7, 48 hours post-transfection): able to relocate the model altered huntingtin polypeptide HD-Q104-myc from the cytosol to the nucleus | retargeting of HD-25Q-GFP ([1]; COS-7 co-transfection): can retarget the distribution of huntingtin polypeptide to the nucleus | colocalization with GFP-HD-Q104 in cell nuclei ([1]; COS-7 stably expressing the intrabody): clearly shows specificity to GFP-HD-Q104

B4: 104Q: model huntingtin-GFP fusion polypeptide with 104 glutamine residues; SEQ ID NO: 14 (protein)
chain: MATLEKLMKAFESLKSFQQQQQQQQQQQQQQQQQQQQQQQQQQQQQQQQQQQQQQQQQQQQQQQQQQQQQQQQQQQQQQQQQQQQQQQQQQQQQQQQQQQQQQQQQQQQQQQQQQQQQQQQ
fluorescence pattern / aggregation / cell death (COS-7 cells; 72 h after transfection): substantial death | aggregates in brain tissue (cerebellar slices): large aggregates

B5: 72Q: model huntingtin-GFP fusion polypeptide with 72 glutamine residues; SEQ ID NO: 13 (protein)
chain: MATLEKLMKAFESLKSFQQQQQQQQQQQQQQQQQQQQQQQQQQQQQQQQQQQQQQQQQQQQQQQQQQQQQQQQQQQQQQQQQQQQQQQQ
aggregates in brain tissue (cerebellar slices): smaller, more discrete aggregates

B6: 47Q: model huntingtin-GFP fusion polypeptide with 47 glutamine residues; SEQ ID NO: 12 (protein)
chain: MATLEKLMKAFESLKSFQQQQQQQQQQQQQQQQQQQQQQQQQQQQQQQQQQQQQQQQQQQQQQQ
fluorescence pattern / aggregation / cell death (COS-7 cells; 24 h after transfection): diffuse, bright
